Measurements from PMC5636944.

Target: K63 diubiquitin (K63 diUb)
Assay: SPR, p62 immobilised on CM5 chip

Row | Substance | KD (reference: p62S403Pi (monophosphorylated), sites S407) | KD (reference: p62S407Pi (monophosphorylated), sites S403) | KD (reference: recombinant p62 WT, unphosphorylated, sites S403,S407)
1 | p62/SQSTM1 (sequestosome-1) 320-436 (from UniProt Q13501) p62 2Pi (pS403/pS407) | stronger; reference 4.4 ± 0.4 μM | stronger; reference 14.8 ± 1.0 μM | –
2 | p62/SQSTM1 (sequestosome-1) 320-436 (from UniProt Q13501) semisynthetic p62 2Pi (pS403/pS407) | – | – | stronger; reference 167.9 ± 13.0 μM
